Measurements taken from patent US20180327746, “Alpha-AMYLASE-BINDING NUCLEIC ACID MOLECULE AND USE THEREOF” (NEC Solution Innovators, Ltd., published 2018).

How the values were obtained:
Conditions in all cases: tags: none stated; commercial human alpha-amylase, Lee Biosolutions; label: 3' poly(dA)20 captured on biotin-poly(dT)20
alpha-amylase [1] = target: T1, alpha-amylase (Homo sapiens, UniProt P0DUB6 P0DUB6:16-511); experiment: SPR; 40 mM HEPES pH 7.4, 125 mM NaCl, 5 mM KCl, 1 mM MgCl2, 0.01% Tween 20; Chi2 2.68
T1 sequence: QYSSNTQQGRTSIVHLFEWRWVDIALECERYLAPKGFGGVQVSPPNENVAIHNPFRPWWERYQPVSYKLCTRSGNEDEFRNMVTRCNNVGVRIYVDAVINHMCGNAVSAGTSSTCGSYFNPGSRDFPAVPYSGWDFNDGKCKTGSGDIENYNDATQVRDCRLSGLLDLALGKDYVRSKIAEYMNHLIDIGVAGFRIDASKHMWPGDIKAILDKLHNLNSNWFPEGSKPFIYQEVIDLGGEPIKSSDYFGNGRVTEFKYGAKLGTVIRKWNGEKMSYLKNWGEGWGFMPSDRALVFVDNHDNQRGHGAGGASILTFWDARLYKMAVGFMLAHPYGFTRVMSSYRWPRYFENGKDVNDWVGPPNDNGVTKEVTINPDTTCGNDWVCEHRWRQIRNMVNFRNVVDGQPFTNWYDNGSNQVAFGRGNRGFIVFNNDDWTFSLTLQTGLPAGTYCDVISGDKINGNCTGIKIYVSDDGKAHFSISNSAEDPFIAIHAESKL
Procedure: (§1) Biotinylated poly(dT) at 5 μmol/L was injected to a flow cell of the sensor chip using ultrapure water (DDW), and the binding was allowed to proceed until the signal intensity (RU: Resonance Unit) reached about 900 RU. The biotinylated poly(dT) was prepared by biotinylating the 5′ end of 20-mer deoxythymidine. Then, the poly(dA)-added aptamer at 200 nmol/L was injected to the flow cell of the chip using an SPR buffer at a flow rate of 25 μL/min for 80 seconds, and the binding was allowed to proceed until the signal intensity reached about 800 RU. […] With 0 seconds being the start of the injection, the mean value of signal intensities from 115 seconds to 125 seconds was determined. […] Then, the value (B/A) obtained by dividing the protein binding measured value (B) by the aptamer immobilization measured value (A) was determined as a relative value (Relative Unit).
(§2) The binding ability of the aptamers was analyzed by SPR in the same manner as in Example 1, except that the concentration of the α-amylase in the specimen was set to a plurality of values. The concentration was set to 20 nmol/L, 10 nmol/L, 5 nmol/L, 2.5 nmol/L, and 1.25 nmol/L. Then, from the results obtained by the SPR analysis, the kinetic parameter and the chi-squared value were calculated.

alpha-amylase [2] = target: T1, alpha-amylase; experiment: SPR; SPR buffer with 1 mM MgCl2, pH 7.4; Chi2 5.18
Procedure: as §1, §2

alpha-amylase [3] = target: T1, alpha-amylase; experiment: SPR; SPR buffer with 1 mM MgCl2, pH 7.4; Chi2 18.8
Procedure: as §1, §2

alpha-amylase [4] = target: T1, alpha-amylase; experiment: SPR; SPR buffer with 1 mM MgCl2, pH 7.4; Chi2 17.73
Procedure: as §1, §2

alpha-amylase [5] = target: T1, alpha-amylase; experiment: SPR; SPR buffer with 1 mM MgCl2, pH 7.4; Chi2 24.85
Procedure: as §1, §2

alpha-amylase [6] = target: T1, alpha-amylase; experiment: SPR; SPR buffer with 1 mM MgCl2, pH 7.4; Chi2 5.69
Procedure: as §1, §2

alpha-amylase [7] = target: T1, alpha-amylase; experiment: SPR; SPR buffer with 1 mM MgCl2, pH 7.4; Chi2 23.63
Procedure: as §1, §2

alpha-amylase [8] = target: T1, alpha-amylase; experiment: SPR; SPR buffer with 1 mM MgCl2, pH 7.4; Chi2 29.33
Procedure: as §1, §2

B1: AML1243KR8m1s58_FW_s15 (ssDNA)
DNA: TAACGCCGCCTATTGTGAACGACGTGAATAGTGTTTGTGGGTCCGGAGTTAAAAAAAAAAAAAAAAAAAA
modifications: KS9 modified T (formula 1) at underlined T, i.e. T 3' of the 5' primer region
How did the Kd (alpha-amylase [1]) turn out when B1 was run?
Its Kd is 0.358 nM.

B2: AML1243KR8m1s65_FW_s15 (ssDNA)
DNA: TAACGCCGCCTATTGTGAACGACGTGAATAGTGTTTGTGGGTCCGGAGTTGCACCCGAAAAAAAAAAAAAAAAAAAA
modifications: KS9 modified T (formula 1) at underlined T, i.e. T 3' of the 5' primer region
How did the Kd (alpha-amylase [2]) turn out when B2 was run?
Its Kd is 0.447 nM.

B3: AML1243KR8m2s49 (ssDNA)
DNA: GGATACCTTAACGCCGCCTATTGCTATGAGTAGTGTTTGTAGGTCTGGCAAAAAAAAAAAAAAAAAAAA
modifications: KS9 modified T (formula 1) at underlined T, i.e. T 3' of the 5' primer region
Which Kd (alpha-amylase [3]) does the source give for B3 here?
Its Kd is 3.19 nM.

B4: AML1243KR8m2s63 (ssDNA)
DNA: GGATACCTTAACGCCGCCTATTGCTATGAGTAGTGTTTGTAGGTCTGGCATGCGAGTTGCACCAAAAAAAAAAAAAAAAAAAA
modifications: KS9 modified T (formula 1) at underlined T, i.e. T 3' of the 5' primer region
Which Kd (alpha-amylase [4]) does the source give for B4 here?
Its Kd is 3.93 nM.

B5: AML1243KR8m2s49Fw_s20 (ssDNA)
DNA: TACCTTAACGCCGCCTATTGCTATGAGTAGTGTTTGTAGGTCTGGCAAAAAAAAAAAAAAAAAAAA
modifications: KS9 modified T (formula 1) at underlined T, i.e. T 3' of the 5' primer region
With B5 as the binder, how does the Kd (alpha-amylase [5]) read?
The Kd was 4.23 nM.

B6: Amy_258KK10R8m4 (ssDNA)
DNA: GGTTACGCCCAGGACACATTTCTGTAGTGAAGTCCTGGTTGGCAAATTCATGGTAAGCTCGGTCTCCTCGGATAATCAAAAAAAAAAAAAAAAAAAA
modifications: KK10 modified T (formula 2) at double-underlined T, i.e. T 3' of the 5' primer region
Which Kd (alpha-amylase [6]) does the source give for B6 here?
Its Kd is 7.34 nM.

B7: AML1243KR8m3s63 (ssDNA)
DNA: GGATACCTTAACGCCGCCTATTGCGAGGTGTGGCTAGTCGTTATAGGTCCACCGAGTTGCACCAAAAAAAAAAAAAAAAAAAA
modifications: KS9 modified T (formula 1) at underlined T, i.e. T 3' of the 5' primer region
Which Kd (alpha-amylase [7]) does the source give for B7 here?
The Kd was 16.4 nM.

B8: AML1243KR8m3s63Fw_s20 (ssDNA)
DNA: TACCTTAACGCCGCCTATTGCGAGGTGTGGCTAGTCGTTATAGGTCCACCGAGTTGCACCAAAAAAAAAAAAAAAAAAAA
modifications: KS9 modified T (formula 1) at underlined T, i.e. T 3' of the 5' primer region
How did the Kd (alpha-amylase [8]) turn out when B8 was run?
The Kd was 16.6 nM.
